From the Immune Epitope Database (IEDB)

Columns and labels:
Test in all cases: IEDB peptide-MHC binding, purified MHC/competitive/radioactivity; filed as Kd, often an IC50 or EC50 that approximates it; ≥ and ≤ were set here for values at or beyond the usual limits of such assays
[1] = target: HLA-A*31:01
[2] = target: HLA-A*33:01
[3] = target: HLA-A*68:01
[4] = target: HLA-A*03:01
[5] = target: HLA-A*11:01
[6] = target: HLA-A*02:03
[7] = target: HLA-A*02:02
[8] = target: HLA-A*02:06
[9] = source organism: SARS coronavirus Tor2
[10] = source organism: Mammarenavirus choriomeningitidis
[11] = source organism: Vaccinia virus WR
[12] = source organism: Mammarenavirus whitewaterense
[13] = source organism: Vaccinia virus Copenhagen

Question: How did the Kd [1, 9] turn out when QSADASTFLK was run?
Answer: 1020 nM

Question: What about the Kd [2, 9] of the same sequence?
Answer: 5290 nM

Question: What about the Kd [3, 9] of the same sequence?
Answer: 49.4 nM

Question: What about the Kd [4, 9] of the same sequence?
Answer: 348 nM

Question: And the Kd [5, 9]?
Answer: 10.2 nM

Question: LNQTVYSLV was tested. Which Kd [6, 10] did it give?
Answer: 1500 nM

Question: What about the Kd [7, 10] of the same sequence?
Answer: 3330 nM

Question: What about the Kd [8, 10] of the same sequence?
Answer: 5100 nM

Question: Which results are given for STRTIILVGY?
Answer: Kd [1, 11]: 339 nM; Kd [2, 11]: 8020 nM; Kd [3, 11]: 100 nM; Kd [4, 11]: 188 nM; Kd [5, 11]: 221 nM

Question: Which Kd [6, 12] does the source give for GLLQFIVFL here?
Answer: 7710 nM

Question: And the Kd [7, 12]?
Answer: 0.6 nM

Question: What about the Kd [8, 12] of the same sequence?
Answer: 12.4 nM

Question: What does the source list for DSIPISELSR?
Answer: Kd [1, 11]: 4140 nM; Kd [2, 11]: 25.5 nM; Kd [3, 11]: 12.3 nM; Kd [4, 11]: ≥ 44900 nM; Kd [5, 11]: 986 nM

Question: DVKVLAARL was tested. Which Kd [6, 11] did it give?
Answer: 10700 nM

Question: What about the Kd [7, 11] of the same sequence?
Answer: 6230 nM

Question: What about the Kd [8, 11] of the same sequence?
Answer: 9990 nM

Question: With NFFTELENKK as the sequence, how does the Kd [1, 11] read?
Answer: ≥ 70000 nM

Question: What about the Kd [2, 11] of the same sequence?
Answer: ≥ 32800 nM

Question: What about the Kd [3, 11] of the same sequence?
Answer: 6670 nM

Question: And the Kd [4, 11]?
Answer: ≥ 61800 nM

Question: And the Kd [5, 11]?
Answer: ≥ 32300 nM

Question: Which Kd [6, 11] does the source give for ITETIPIGM here?
Answer: ≥ 42800 nM

Question: And the Kd [7, 11]?
Answer: 12400 nM

Question: What about the Kd [8, 11] of the same sequence?
Answer: 7690 nM

Question: What does the source list for DIICEDAMY?
Answer: Kd [1, 11]: ≥ 77900 nM; Kd [2, 11]: ≥ 20200 nM; Kd [3, 11]: 4550 nM; Kd [4, 11]: ≥ 78000 nM; Kd [5, 11]: ≥ 77900 nM

Question: What does the source list for LIVAALVFL?
Answer: Kd [6, 9]: 136 nM; Kd [7, 9]: 9.38 nM; Kd [8, 9]: 10.5 nM

Question: How did the Kd [6, 11] turn out when NLCKYLRGHT was run?
Answer: 8040 nM

Question: What about the Kd [7, 11] of the same sequence?
Answer: ≥ 39600 nM

Question: What about the Kd [8, 11] of the same sequence?
Answer: ≥ 69800 nM

Question: How did the Kd [1, 9] turn out when STNLCTHSFR was run?
Answer: 0.941 nM

Question: And the Kd [2, 9]?
Answer: 8.87 nM

Question: And the Kd [3, 9]?
Answer: 6.19 nM

Question: What about the Kd [4, 9] of the same sequence?
Answer: 297 nM

Question: And the Kd [5, 9]?
Answer: 10.6 nM

Question: Which Kd [6, 11] does the source give for VTTNNLLEQL here?
Answer: 17900 nM

Question: And the Kd [7, 11]?
Answer: 4690 nM

Question: And the Kd [8, 11]?
Answer: 5910 nM

Question: For DLIVTFRER, which Kd [1, 11] is on record?
Answer: 509 nM

Question: And the Kd [2, 11]?
Answer: 14.8 nM

Question: And the Kd [3, 11]?
Answer: 19.8 nM

Question: And the Kd [4, 11]?
Answer: 12700 nM

Question: And the Kd [5, 11]?
Answer: 8140 nM

Question: ALLSTDGNK was tested. Which Kd [1, 9] did it give?
Answer: 10200 nM

Question: And the Kd [2, 9]?
Answer: ≥ 77700 nM

Question: What about the Kd [3, 9] of the same sequence?
Answer: ≥ 23700 nM

Question: What about the Kd [4, 9] of the same sequence?
Answer: 52.5 nM

Question: And the Kd [5, 9]?
Answer: 494 nM

Question: What does the source list for QLMYALEPRK?
Answer: Kd [1, 13]: 8370 nM; Kd [2, 13]: ≥ 70000 nM; Kd [3, 13]: 83.8 nM; Kd [4, 13]: 150 nM; Kd [5, 13]: 85 nM

Question: Which results are given for FVASFRLFAR?
Answer: Kd [1, 9]: 6.64 nM; Kd [2, 9]: 14.1 nM; Kd [3, 9]: 0.106 nM; Kd [4, 9]: 94.2 nM; Kd [5, 9]: 50 nM

Question: For TLNEYKQLYT, which Kd [6, 11] is on record?
Answer: 773 nM

Question: What about the Kd [7, 11] of the same sequence?
Answer: 144 nM

Question: And the Kd [8, 11]?
Answer: ≥ 69800 nM

Question: Which Kd [1, 9] does the source give for KFTTSLSLHK here?
Answer: 239 nM

Question: What about the Kd [2, 9] of the same sequence?
Answer: 8190 nM

Question: What about the Kd [3, 9] of the same sequence?
Answer: 302 nM

Question: What about the Kd [4, 9] of the same sequence?
Answer: 275 nM

Question: What about the Kd [5, 9] of the same sequence?
Answer: 135 nM

Question: IMVASDVCK was tested. Which Kd [1, 11] did it give?
Answer: 991 nM

Question: What about the Kd [2, 11] of the same sequence?
Answer: 3480 nM

Question: And the Kd [3, 11]?
Answer: 408 nM

Question: And the Kd [4, 11]?
Answer: 150 nM

Question: And the Kd [5, 11]?
Answer: 369 nM

Question: Which results are given for CIVAAVIIMA?
Answer: Kd [6, 11]: 619 nM; Kd [7, 11]: 1130 nM; Kd [8, 11]: 733 nM

Question: How did the Kd [6, 11] turn out when LVKDESIQL was run?
Answer: 649 nM

Question: And the Kd [7, 11]?
Answer: 122 nM

Question: And the Kd [8, 11]?
Answer: 1400 nM

Question: What does the source list for VTYVPSQER?
Answer: Kd [1, 9]: 23.6 nM; Kd [2, 9]: 341 nM; Kd [3, 9]: 1130 nM; Kd [4, 9]: 3270 nM; Kd [5, 9]: 883 nM

Question: Which results are given for KTDFKVVKK?
Answer: Kd [1, 11]: 71.1 nM; Kd [2, 11]: 1210 nM; Kd [3, 11]: 365 nM; Kd [4, 11]: 14.8 nM; Kd [5, 11]: 60.6 nM

Question: What does the source list for NLPYNWKNFY?
Answer: Kd [1, 11]: 1720 nM; Kd [2, 11]: 18600 nM; Kd [3, 11]: 626 nM; Kd [4, 11]: 1780 nM; Kd [5, 11]: 4360 nM

Question: What does the source list for LTILDDNLYK?
Answer: Kd [1, 13]: 6840 nM; Kd [2, 13]: 17700 nM; Kd [3, 13]: 19.5 nM; Kd [4, 13]: 229 nM; Kd [5, 13]: 3.38 nM

Question: For EMVDELVTRK, which Kd [1, 11] is on record?
Answer: ≥ 70000 nM

Question: And the Kd [2, 11]?
Answer: ≥ 70000 nM

Question: What about the Kd [3, 11] of the same sequence?
Answer: 1210 nM

Question: And the Kd [4, 11]?
Answer: ≥ 70100 nM

Question: And the Kd [5, 11]?
Answer: 8710 nM

Question: How did the Kd [1, 11] turn out when VLDRDGNFR was run?
Answer: 159 nM

Question: What about the Kd [2, 11] of the same sequence?
Answer: 607 nM

Question: What about the Kd [3, 11] of the same sequence?
Answer: 926 nM

Question: What about the Kd [4, 11] of the same sequence?
Answer: 3330 nM

Question: And the Kd [5, 11]?
Answer: 15600 nM

Question: For SVEDVSAFVR, which Kd [1, 11] is on record?
Answer: 656 nM

Question: What about the Kd [2, 11] of the same sequence?
Answer: 2120 nM

Question: And the Kd [3, 11]?
Answer: 15.6 nM

Question: And the Kd [4, 11]?
Answer: ≥ 70100 nM

Question: What about the Kd [5, 11] of the same sequence?
Answer: 36.8 nM

Question: Which results are given for GLTTHCTKLR?
Answer: Kd [1, 11]: 511 nM; Kd [2, 11]: 4210 nM; Kd [3, 11]: 12100 nM; Kd [4, 11]: 5180 nM; Kd [5, 11]: 4630 nM

Question: Which results are given for ATMLEYVRY?
Answer: Kd [1, 11]: 3410 nM; Kd [2, 11]: ≥ 77700 nM; Kd [3, 11]: ≥ 29400 nM; Kd [4, 11]: 1700 nM; Kd [5, 11]: 23.5 nM

Question: Which results are given for VLCNSQTSLR?
Answer: Kd [1, 9]: 68.4 nM; Kd [2, 9]: 1180 nM; Kd [3, 9]: 1010 nM; Kd [4, 9]: 435 nM; Kd [5, 9]: 1860 nM

Question: With EIITGNKVK as the sequence, how does the Kd [1, 11] read?
Answer: ≥ 77900 nM

Question: And the Kd [2, 11]?
Answer: ≥ 77700 nM

Question: What about the Kd [3, 11] of the same sequence?
Answer: 233 nM

Question: What about the Kd [4, 11] of the same sequence?
Answer: ≥ 78000 nM

Question: And the Kd [5, 11]?
Answer: 1200 nM

Question: For PISELSRLRY, which Kd [1, 11] is on record?
Answer: ≥ 70000 nM

Question: And the Kd [2, 11]?
Answer: 15500 nM

Question: And the Kd [3, 11]?
Answer: ≥ 44900 nM

Question: And the Kd [4, 11]?
Answer: 3270 nM

Question: And the Kd [5, 11]?
Answer: 735 nM

Question: Which Kd [1, 11] does the source give for HINALEYIIK here?
Answer: 1520 nM

Question: What about the Kd [2, 11] of the same sequence?
Answer: 200 nM

Question: And the Kd [3, 11]?
Answer: 35.9 nM

Question: What about the Kd [4, 11] of the same sequence?
Answer: 117 nM

Question: What about the Kd [5, 11] of the same sequence?
Answer: 87.9 nM
